Two proteins from article PMC3744072, “Analysis of the cartilage proteome from three different mouse models of genetic skeletal diseases reveals common and discrete disease signatures” (Biology Open, 2013) can be followed below.

Series [1] deals with the molecule itself. Briefly: non-reducing SDS-PAGE and Western blot; sequential extracts (buffer 1: 0.15 M NaCl; buffer 2: 1 M NaCl, 10 mM EDTA; buffer 3: 4 M GuHCl, 10 mM EDTA) of knee cartilage of 3-week-old mice, non-reducing 4-13.5% gels; oligomers assigned by apparent size.
Series [2] deals with the molecule itself. Briefly: non-reducing SDS-PAGE and Western blot; total protein lysates of isolated chondrocytes of 5-day-old mice, 4-12% gels, non-reduced against reduced (0.1 M DTT); oligomers assigned by apparent size. Background: In western blotting, separated proteins are transferred to a membrane and probed.

Values joined by “and” are separate entries in the source; they are usually repeats but may differ in a detail not shown here. Equal values may be shown once.

B1: matrilin-4 (mouse) (natural protein, mouse (endogenous in mouse cartilage), UniProt O89029 22-624, looked up)
chain: QLQSAGPRCYNGPLDLVFMIDSSRSVRPFEFETMRQFLVGLLRSLDVGLNATRVGVIQYSSQVQSVFPLGAFSRREDMERAIRAVVPLAQGTMTGLAIQYAMNVAFSEAEGARPSEERVPRVLVIVTDGRPQDRVAEVAAQARARGIEIYAVGVQRADVGSLRTMASPPLDQHVFLVESFDLIQEFGLQFQGRLCGKDLCAELVHGCQHLCVNAPGTFYCACNSGYKLAPDNKNCLALDLCAEGTHGCEHLCVNSVDSYFCRCRAGFALQQDQRSCRAIDYCSFGNHSCQHECVSTLAGPQCRCREGHDLLPDGRSCRVRDFCNGVDHGCEFQCVSEGLSFHCLCPEGRRLQADGKSCDRCREGHVDLVLLVDGSKSVRPQNFELVKRFVNQIVDFLDVSPEGTRVGLVQFSSRVRTEFPLGRYGTAAEVKQAVLAVEYMERGTMTGLALRHMVEHSFSEAQGARPRDLNVPRVGLVFTDGRSQDDISVWAARAKEEGIVMYAVGVGKAVEEELREIASEPSELHVSYSPDFSTMTHLLENLKGSICPEEGIGAGTELRSPCECESLVEFQGRTLGALESLTQNLARLTERLEELENQLASRK
notes: matrilin-4, mouse, endogenous in cartilage
The stoichiometry N is a count of units in the complex or per binding partner. On to B1, for which the “stoichiometry N” value in series [1] was 2 and 3.

B2: cartilage oligomeric matrix protein (COMP), wild type, mouse (natural protein)
chain: not shown
notes: cartilage oligomeric matrix protein, mouse, endogenous in chondrocytes; The text calls the retained form consistent with a tetramer; also called wild type COMP; source: endogenous, lysate of isolated costal chondrocytes of Matn3 V194D mice
On to B2, for which the “stoichiometry N” value in series [2] worked out at 4.
